Experimental findings from PMC9080894 are described below.

In series [1] the target is T1, thrombin, BODIPY-labeled (human, UniProt P00734;P00734 328-363;364-622). The series is described as follows: single-particle fluorescence microscopy of coated microspheres.
Series [2] has as its target T1, thrombin, BODIPY-labeled. Briefly: single-particle fluorescence microscopy of aptamer-coated microspheres.

As for CCAACCACAGTGTT (ssDNA, 3'-NH2) [NH2-com], the binding result with thrombin, BODIPY-labeled [1] was “no binding”. Consider TTCACTGTGGTTGGTGTGGTTGG (structured_DNA, 5'-NH2) [ssTBA], for which the binding result in the series with thrombin, BODIPY-labeled [2] was “binds”.
